Laboratory results reported in US11046988B2, “Process for the modification of a glycoprotein using a β-(1,4)-N-acetylgalactosaminyl transferase or a mutant thereof” (Synaffix B.V., priority 2014, dated 2021).

Tests used:
[1] = test system: GlcNAc-Man5-GlcNAc-GlcNAc(Fuc)-substituted trastuzumab (formula 26); assay: Glycosyltransfer of GalNAz to GlcNAc-Man5-GlcNAc-GlcNAc(Fuc)-substituted trastuzumab, MS analysis; format: biochemical; details: UDP-GalNAz 0.5 mM, CeGalNAcT 0.1 mg/mL, 10 mM MnCl2, pH 8.0, 16 hours, 30° C.
Experimental: Trastuzumab transiently expressed in the presence of swainsonine as described in Example 18 (10 mg/mL) was incubated with neuraminidase (0.5 mU/mg IgG) from Vibrio cholerae (commercially available from Sigma-aldrich) in 100 mM sodium acetate pH 6.0 and 2 mM CaCl2 for 16 hrs, which led to complete removal of the sialic acid (two major heavy chain products of 50712 and 50874 Da which correspond to approximately 20 and 70% of the total heavy chain products). When the same reaction was performed in the presence of β(1,4)-galactosidase (3 mU/mg IgG) from Streptococcus pneumoniae (commercially available from Calbiochem), a single major heavy chain product was observed corresponding to trastuzumab with a GlcNAc-Man5-GlcNAc-GlcNAc(Fuc)-substituted heavy chain (c=d=0, 50712 Da, ±90% of total heavy chain product, and minor heavy chain products between 50700 and 50900 Da).
A solution of 50 μg (modified) IgG, 1 M Tris-HCl pH 8.0, 1 mM EDTA and 30 mM DTT with a total volume of approximately 70 μL was incubated for 20 minutes at 37° C. to reduce the disulfide bridges allowing to analyze both light and heavy chain. If present, azide-functionalities are reduced to amines under these conditions. […] The reduced IgG was analyzed by electrospray ionization time-of-flight (ESI-TOF) on a JEOL AccuTOF. […]

[2] = Coupled glycosyltransferase assay (R&D Systems Glycosyltransferase Activity Kit, malachite green, 620 nm): transfer of F2-GalNAz to GlcNAc; format: biochemical; parameters: Data from the determination of the specific activity: unit not given here; details: for Data from the determination of the specific activity: GlcNAc 20 mM, UDP-F2-GalNAz 500 μM, 20 min, room temperature, plate read at 620 nm; for specific activity: UDP-F2-GalNAz 500 μM to GlcNAc 20 mM, 5 mM MgCl2 and 5 mM MnCl2, pH 7.5, linear regression; for transferase activity compared with GalT(Y289L): transfer of F2-GalNAz from UDP-F2-GalNAz (18) to GlcNAc, FIG. 7 / FIG. 8
Description: In brief, the glycosyltransferase kit determines the activity of a particular glycosyltransferase by means of a coupled assay that detects the release of liberated UDP upon transfer of the donor sugar (from the sugar-UDP nucleotide) to an acceptor sugar. In more detail, the UDP that is liberated upon transfer of sugar is hydrolyzed by a particular enzyme (CD39L3/rectonucleoside triphosphate diphosphohydrolase-3, also known as NTPDase-3) thereby generating UMP and one equivalent of phosphate (Pi). The latter phosphate in turn is detected by malachite green, which is also added to the mixture. A green color develops in proportion to the amount of inorganic phosphate released and the absorbance of the color at 620 nm is measured as a direct measure of the activity of the glycosyltransferase. In the present case, transfer of F2-GalNAz from the UDP-substrate to GlcNAc on the protein is accompanied by release of UDP, which is hydrolyzed by CD39L3 and the generated phosphate. Preferably, the derived or wild type β-(1,4)-GalNAcT enzyme used in the process according to the invention has at least 30%, 33%, 50%, 75%, 100%, 150%, 200%, or more preferably at least 300% of the UDP-F2-GalNAz transfer activity as compared to the UDP-F2-GalNAz transfer activity of the β-(1,4)-galactosyltransferase mutant enzyme Bos taurus GalT-Y289L (SEQ ID NO: 1), wherein the transfer activity is assessed using the R&D Systems Glycosyltransferase Activity Kit and applying the conditions as indicated in detail in Example 18 and using equal amounts of the enzyme to be tested and β-(1,4)-galactosyltransferase mutant enzyme Bos taurus GalT-Y289L (SEQ ID NO: 1).
Specific activity of enzymes was determined by a coupled glycosyltransferase procedure as described by Wu et al. in Glycobiology 2010, 21, 723-733, incorporated by reference, and commercially available as a kit from R&D system.
In short, a glycosyltransferase reaction was carried out in 50 μL of reaction buffer (25 mM Tris, 150 mM NaCl, 5 mM MgCl2 and 5 mM MnCl2, pH 7.5) in a 96-well plate at room temperature for 20 min. To determine the kinetic parameters of a glycosyltransferase, multiple reactions with varying amounts of the enzyme were carried out simultaneously (0.01, 0.02, 0.04, 0.06, 0.08, 0.10 and 0.12 μg of enzyme) in the presence of fixed amounts of all other components (GlcNAc: 20 mM, UDP-F2-GalNAz: 500 μM), including the coupling phosphatase 1 (ENTPD3/CD39L3) (2.5 μL of 20 ng/μL solution). A well containing all components except for the enzyme served as a blank control. The reactions were initiated by adding the substrates and phosphatase to the enzyme and terminated by the addition of 30 μL of Malachite reagent A and 100 μL of water to each well. The color was developed by the addition of 30 μL of Malachite reagent B to each well followed by gentle mixing and incubation at room temperature for 20 min. Following color development, the plate was read at 620 nm with a multi-well plate reader. A phosphate standard curve was also performed to determine the conversion factor between the absorbance and the inorganic phosphate contents. Preparation of UDP-F2-GalNAz is described in Example 13.
The specific activity of the GalNAcTs described herein were compared to GalT(Y289L), an enzyme known to transfer UDP-GalNAz as previously disclosed in WO 2007/095506 and WO 2008/029281 (both Invitrogen Corporation).
A graph depicting the conversion (in pmol/min/m) plotted against the amount of enzyme is shown in FIG. 7 (for Table 1) and FIG. 8 (for Table 2). From these plots specific activities were calculated by linear regression. […]

| activity for transfer of an azido-GalNAc derivative, times higher than GalT(Y289L) ([2]; relative to GalT(Y289L), FIG. 7) [times] | Molecule | conversion into GalNAz-GlcNAc-Man5-GlcNAc-GlcNAc(Fuc)-substituted trastuzumab [1] | major heavy chain product (GalNAz-GlcNAc-Man5-GlcNAc-GlcNAc(Fuc)-substituted) [1] | Data from the determination of the specific activity ([2]; 0.01 μg enzyme) | Data from the determination of the specific activity ([2]; 0.02 μg enzyme) | Data from the determination of the specific activity ([2]; 0.04 μg enzyme) | Data from the determination of the specific activity ([2]; 0.06 μg enzyme) | Data from the determination of the specific activity ([2]; 0.08 μg enzyme) | Data from the determination of the specific activity ([2]; 0.1 μg enzyme) | Data from the determination of the specific activity ([2]; 0.12 μg enzyme) | specific activity [2] [pmol/min/µg] | transferase activity compared with GalT(Y289L) [2] |
| --- | --- | --- | --- | --- | --- | --- | --- | --- | --- | --- | --- | --- |
| 10 | CeGalNAcT: truncated Caenorhabditis elegans β-(1,4)-GalNAcT, amino acids 30-383 of SEQ ID NO: 2 (SEQ ID NO: 6) | complete conversion | ~90 % of the total heavy chain products | 0.031 | 0.066 | 0.14 | 0.162 | 0.265 | 0.301 | 0.348 | 426 | significantly higher |
| – | TnGalNAcT: truncated Trichoplusia ni β-(1,4)-GalNAcT, amino acids 33-421 of SEQ ID NO: 4 (SEQ ID NO: 8) (protein, TnGalNAcT(33-421)) SPLRTYLYTPLYNATQPTLRNVERLAANWPKKIPSNYIEDSEEYSIKNISLSNHTTRASVVHPPSSITETASKLDKNMTIQDGAFAMISPTPLLITKLMDSIKSYVTTEDGVKKAEAVVTLPLCDSMPPDLGPITLNKTELELEWVEKKFPEVEWGGRYSPPNCTARHRVAIIVPYRDRQQHLAIFLNHMHPFLMKQQIEYGIFIVEQEGNKDFNRAKLMNVGFVESQKLVAEGWQCFVFHDIDLLPLDTRNLYSCPRQPRHMSASIDKLHFKLPYEDIFGGVSAMTLEQFTRVNGFSNKYWGWGGEDDDMSYRLKKINYHIARYKMSIARYAMLDHKKSTPNPKRYQLLSQTSKTFQKDGLSTLEYELVQVVQYHLYTHILVNIDERS | – | – | 0 | 0.007 | 0.025 | 0.051 | 0.073 | 0.083 | 0.102 | 140 | significantly higher |
